Patent US20250250357A1 (NANJING ZAIMING PHARMACEUTICAL, published 2025)

Legend:
[1] = target: T1, human MSLN-FL-his protein (human, UniProt Q13421 296-580); assay: competitive ELISA; row F1.2.12; note: test concentration or dose not given here
T1 construct: made in HEK293E cells, purified on nickel column; also called hMSLN-FL-his; human MSLN full-length protein; not shown: His tag

[2] = target: T1, human MSLN-FL-his protein; assay: competitive ELISA; row F1.56.1; note: test concentration or dose not given here
[3] = target: T1, human MSLN-FL-his protein; assay: competitive ELISA; row F2.13.3; note: test concentration or dose not given here
[4] = target: T1, human MSLN-FL-his protein; assay: competitive ELISA; row F2.17.3
Method: In order to identify antigen-binding sites of antibodies, MSLN chimeric antibodies were grouped using competitive ELISA.
The chimeric antibodies were diluted to 2 μg/mL with PBS and allowed to coat 96-well high-adsorption ELISA plates at 50 μL/well. After the plates were coated at 4° C. overnight, 250 μL of a blocking buffer (PBS containing 2% (w/w) BSA) was added for two hours of blocking at room temperature. 40 μg/mL of the antibodies to be tested were added, and then the human MSLN-FL-His protein with an EC₈₀ concentration corresponding to each of the antibodies to be tested was added for incubation for 2 h. The plates were washed 5 times with PBS, an HRP-labeled anti-His secondary antibody (purchased from Genescript, Cat. No. A00612) was then added for incubation for 1 h, and the plates were washed 5 times again. A TMB substrate was added at 50 μL/well, and after 10 minutes of incubation at room temperature, a stop solution (1.0 M HCl) was added at 50 μL/well. OD₄₅₀ nm values were read using an ELISA plate reader (Insight, purchased from PerkinElmer), and the competition rate between the antibodies was calculated according to the OD₄₅₀ nm values using a formula.

[5] = target: T1, human MSLN-FL-his protein; assay: competitive ELISA; row F2.39.3; note: test concentration or dose not given here
[6] = target: T1, human MSLN-FL-his protein; assay: competitive ELISA; row F2.58.8; note: test concentration or dose not given here
[7] = target: T1, human MSLN-FL-his protein; assay: competitive ELISA; row F1.35.24; note: test concentration or dose not given here
[8] = target: T1, human MSLN-FL-his protein; assay: competitive ELISA; row F2.16.10; note: test concentration or dose not given here
[9] = target: T1, human MSLN-FL-his protein; assay: competitive ELISA; row F2.24.10; note: test concentration or dose not given here
[10] = target: T1, human MSLN-FL-his protein; assay: competitive ELISA; row Tab108 (R3); note: test concentration or dose not given here
[11] = target: T1, human MSLN-FL-his protein; assay: competitive ELISA; row Tab142 (R1); note: test concentration or dose not given here
[12] = target: T1, human MSLN-FL-his protein; assay: SPR (Biacore), antibody captured on Protein A chip;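 note: measured at 25 °C, analyte injected 240 s in five twofold dilutions from 200 nM, dissociation up to 600 s, double-referenced, fitted with Langmuir 1:1 model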
[13] = target: T1, human MSLN-FL-his protein; assay: competitive ELISA; row Tab107 (conformation); note: test concentration or dose not given here
[14] = target: T2, human MSLN protein endogenously expressed on OVCAR3 tumor cells (human, UniProt Q13421 296-598); assay: FACS on OVCAR3 cells
T2 construct: whole, on cells; Endogenous target on OVCAR3 cells; kept apart from the recombinant full-length construct; also called mesothelin
T2 sequence (Q13421 other isoform, or with tags, fused parts or gaps): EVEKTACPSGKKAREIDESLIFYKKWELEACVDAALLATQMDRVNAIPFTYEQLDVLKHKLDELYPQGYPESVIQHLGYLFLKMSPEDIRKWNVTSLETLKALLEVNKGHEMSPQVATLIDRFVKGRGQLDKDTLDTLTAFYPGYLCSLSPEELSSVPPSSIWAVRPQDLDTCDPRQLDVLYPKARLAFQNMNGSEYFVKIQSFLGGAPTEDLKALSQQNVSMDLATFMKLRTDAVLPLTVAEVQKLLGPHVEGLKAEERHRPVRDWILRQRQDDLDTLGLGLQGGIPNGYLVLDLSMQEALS
Method: (§1) The desired cells were expanded to the logarithmic growth phase in a T-75 cell culture flask. […] After the cells from the previous step were subjected to cell counting, the cell pellet was resuspended to 2×10⁶ cells/mL in a blocking buffer of [PBS+2% (w/w) BSA] and added into a 96-well FACS reaction plate at 50 μL/well. A chimeric antibody (a sample to be tested) was added at 50 μL/well, and the plate was incubated on ice for 2 h. […] After the plate was centrifuged and washed 5 times with a PBST buffer, assay and analysis were performed by FACS (FACS CantoII, purchased from BD). Data analysis was performed by software (Flowjo) to obtain the mean fluorescence intensity (MFI) of the cells.

[15] = target: T3, human MSLN full-length protein (NCBI: AAH09272.1) expressed on HEK293T-hMSLN-B8 cells (human, UniProt Q13421 296-598); assay: FACS on HEK293T-hMSLN-B8 cells
T3 construct: Whole encoded precursor
T3 sequence (Q13421 other isoform, or with tags, fused parts or gaps limits assumed): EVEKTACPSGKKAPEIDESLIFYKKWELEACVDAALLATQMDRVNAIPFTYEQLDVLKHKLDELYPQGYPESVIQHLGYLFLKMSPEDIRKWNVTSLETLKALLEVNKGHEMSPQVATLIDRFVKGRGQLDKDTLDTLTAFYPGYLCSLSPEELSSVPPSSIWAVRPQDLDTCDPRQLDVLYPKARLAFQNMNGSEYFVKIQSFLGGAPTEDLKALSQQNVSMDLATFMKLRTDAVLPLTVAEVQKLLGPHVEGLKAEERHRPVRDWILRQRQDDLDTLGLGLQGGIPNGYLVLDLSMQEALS
Method: as §1

[16] = target: T4, human MSLN-R3 protein (Met487-Ser606 of NCBI AAH09272.1) expressed on HEK293T-hMSLN-R3 cells (human, UniProt Q13421 487-606); assay: FACS on HEK293T-hMSLN-R3 cells
T4 construct: also called Region3
T4 sequence (Q13421 495-614): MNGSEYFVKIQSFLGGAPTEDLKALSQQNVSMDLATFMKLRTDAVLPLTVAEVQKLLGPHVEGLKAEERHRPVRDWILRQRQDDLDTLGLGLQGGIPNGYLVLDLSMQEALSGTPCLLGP
Method: as §1

T1 sequence (Q13421 other isoform, or with tags, fused parts or gaps): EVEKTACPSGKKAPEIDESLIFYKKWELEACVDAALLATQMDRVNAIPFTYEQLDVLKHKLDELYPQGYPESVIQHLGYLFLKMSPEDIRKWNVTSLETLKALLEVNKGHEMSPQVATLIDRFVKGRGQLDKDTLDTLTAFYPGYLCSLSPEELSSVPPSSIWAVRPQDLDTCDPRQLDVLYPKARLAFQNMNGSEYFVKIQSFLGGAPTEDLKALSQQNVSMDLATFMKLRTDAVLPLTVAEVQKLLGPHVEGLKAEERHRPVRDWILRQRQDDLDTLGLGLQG

| competition rate [1] | competition rate [2] | competition rate [3] | competition rate [4] | competition rate [5] | competition rate [6] | competition rate [7] | competition rate [8] | competition rate [9] | competition rate [10] | competition rate [11] | Kd [12] | koff [12] | kon [12] | competition rate [13] | Maximum mean fluorescence intensity [14] | Maximum mean fluorescence intensity [15] | EC50 [16] | Maximum mean fluorescence intensity [16] | Binder |
| --- | --- | --- | --- | --- | --- | --- | --- | --- | --- | --- | --- | --- | --- | --- | --- | --- | --- | --- | --- |
| -70% | 24% | -1080% | 90% | 97% | 69% | 61% | -42% | 2% | 85% | 23% | 8.71 nM | 0.000714 s⁻¹ | 81900 M⁻¹ s⁻¹ | 3% | – | – | – | – | S009-F2.23.12 (antibody, human IgG1, kappa, V domains shown, human-murine chimeric antibody, human IgG1/kappa constant regions) VH: QVQLQQPGTELVKPGASVKLSCKASGYTFTNYWMHWVKQRPGQGLEWIGNINPSNGGPYYNERFRSKATLTVDKSSSTAYMQLSSLTSEDSAVYYCARPYYGSSYGYFDYWGQGTTLTVSS VL: DIQMTQSPSSLSASLGGKVTITCKASQDINKYIAWYQHKPGKGPRLLIHYTSELQPGIPSRFSGNGSGRDYSFSISNLEPEDIATYYCLQYANPLRTFGGGTKLEIKR |
| -401% | -401% | -740% | -34% | 31% | 18% | -18% | 103% | 88% | -156% | 98% | 1.51 nM | 0.00164 s⁻¹ | 1.09e+06 M⁻¹ s⁻¹ | -51% | – | – | – | – | S009-F2.16.10 (antibody, human IgG1, kappa, V domains shown, human-murine chimeric antibody, human IgG1/kappa constant regions) VH: QVQLQQPGAELIKPGASVKLSCKASGYTFTSYWMHWVKQRPGQGLEWIGIIHPNIGSTNYNERFKSKATLTVDKSSSTAYMQLSSLTSEDSAVYYCARRSSNYGDWYFDVWGTGTTVTVSS VL: DIVMTQSHRFMSTSVGDRVSITCKASQDVGTSVAWYQQKPGQSPKLLIYWASTQHTGVPDRFTGSGSGTDFTLTINNVQSEDLLDYFCQQYSSYPLTFGAGTKLELKR |
| – | – | – | – | – | – | – | – | – | – | – | – | – | – | – | 429 | 41900 | 1.44 nM | 6260 | S009-F1.25.10 (antibody, human IgG1, kappa, V domains shown, human-murine chimeric antibody, human IgG1/kappa constant regions) VH: EVQLQQSGPELVKPGASLKISCKASGYSFTDYTMNWVKQSHGKNLEWIGLFNPYNGGISYNQKFKGKATLTVDKSSNTAYMELLSLTSDDSAVYFCARDGRGGFYAMDYWGQGTSVTVSS VL: DIQMTQTTSSLSASLGDRVTISCRASQDISIYLNWYQQKPDGPVKLLIYYTSRLHSGVPSRFSGSGSGTDFSLTISNLEQEDIATYFCQQGYTLPPWTFGGGTKLEIKR |
| 63% | 74% | 54% | -31% | 2% | 32% | 4% | -81% | -17% | -29% | -5% | 15.8 nM | 0.00143 s⁻¹ | 90600 M⁻¹ s⁻¹ | 29% | – | – | – | – | S009-F1.2.12 (antibody, human IgG1, kappa, V domains shown, human-murine chimeric antibody, human IgG1/kappa constant regions) VH: QVQLKQTGPGLVQPSQSLSITCTVSGFSLTNYAVHWVRQSPGKGLEWLGVIWSGGATDYNTVFISRLSISKDNSKSQVFFKVNSLQVDDTAIYYCARTGSGYAMDYWGQGTSVTVSS VL: DIVLTQSPATLSVTPGDRVSLSCRTSHNVNTYLHWYQQKSHESPRLLIKYASQSISEIPSRFSGSGSGTNFTLSINSVETEDFGMYFCHQTNRWPLTFGAGTKLELKR |
| – | – | – | – | – | – | – | – | – | – | – | – | – | – | – | 948 | 8750 | 3.9 nM | 6660 | S009-F1.57.1 (antibody, human IgG1, kappa, V domains shown, human-murine chimeric antibody, human IgG1/kappa constant regions) VH: EAQLQQSGAVFVKPGASVKLSCTASGFSSKDIFLHWVKQRPEQGLEWIGRIDPASDNTIYDPKFQDRATITSDRSSNTAYLQFSSLTSEDTAVYFCLYFDFWGQGTTLTVSS VL: DIVMTQATPSISVTPGESVSISCRSSESLLHSNGNTYLYWFLQRPGQSPQLLIYRMSNLASGVPDRFSVSGSGTAFTLRISRVEAEDVGVYYCMQHLEYPLTFGAGTKLELKR |
| – | – | – | – | – | – | – | – | – | – | – | – | – | – | – | 425 | 9550 | 0.95 nM | 6930 | S009-F1.62.9 (antibody, human IgG1, kappa, V domains shown, human-murine chimeric antibody, human IgG1/kappa constant regions) VH: EVQLQQSGADLVKPGASVKLSCTVFGLNFKDTFMHWVRQRPEQGLEWIGRIDPANDNSIYGPKFQDKATITADTSSNTAYLHLSSLTSEDTAVYYCLYFDNWGHGTTLTVSS VL: DIVMTQAASSEPVTPGESVSISCRSDKSLLHSNGHNYLYWFLQRPGQSPHLLIYRMSNLASGVPDRFSGSGSGTAFTLRISRVEAEDVGVYYCMQHLEYPLTFGAGTKLELKR |
| -484% | -324% | -975% | -88% | 23% | 31% | -12% | 88% | 56% | -158% | 82% | 5.13 nM | 0.0103 s⁻¹ | 2.01e+06 M⁻¹ s⁻¹ | -42% | – | – | – | – | S009-F2.47.1 (antibody, human IgG1, kappa, V domains shown, human-murine chimeric antibody, human IgG1/kappa constant regions) VH: QVQLQQPGAELVKPGASVKLSCKASGYTFTSYWMHWVKQRPGQGLEWIGMIHPNSGSTNYNEKFKSKATLTVDKSSSTAYMQLSSLTSEDSAVYYCARPVVPYWYFDVWGTGTTVTVSS VL: DIVMTQSQKFMSTTVGDRVSITCKASQNVGTAVAWYQQKPGQSPKLLIYSASNRYTGVPDRFTGSGSGTDFTLTISNMQSEDLADYFCQQSSSYPLTFGAGTKLELKR |
| – | – | – | – | – | – | – | – | – | – | – | – | – | – | – | 445 | 32800 | 0.31 nM | 7070 | S009-F1.59.1 (antibody, human IgG1, kappa, V domains shown, human-murine chimeric antibody, human IgG1/kappa constant regions) VH: EVKLEGSGGGLVQPGGSMMLSCVATGFTFSSYWMNWVRQSPDRGLEWVAEIRLKSNGFAAFYAESVKGRFTISRDDSKSSVYLQMNNLRTEDTGIYYCTYFVHWGQGILVTVSE VL: DIVLTQSPTSLAVSLGQRATISCRTSESVEYFGTILIQWYQQKPGQPPKLLIFGASNVESGVPARFSGSGSGTDFSLNIHPVEEEDIAMYFCQQNRKVPYTFGGGTTLELKR |
